The source of these data is patent US10428140B2, “Anti-EphA4 antibody” (EISAI R&D MANAGEMENT CO., LTD., priority 2015, dated 2019).

Sequences and labels used below:
T1: human EphA3 (Homo sapiens, UniProt P29320)
T1 construct: a protein of the extracellular region of each human Eph receptor fused with the SEAP protein and the His tag; made in house; host or cells: Expi293F cells (culture supernatant)
T1 sequence (P29320 21-541 limits assumed): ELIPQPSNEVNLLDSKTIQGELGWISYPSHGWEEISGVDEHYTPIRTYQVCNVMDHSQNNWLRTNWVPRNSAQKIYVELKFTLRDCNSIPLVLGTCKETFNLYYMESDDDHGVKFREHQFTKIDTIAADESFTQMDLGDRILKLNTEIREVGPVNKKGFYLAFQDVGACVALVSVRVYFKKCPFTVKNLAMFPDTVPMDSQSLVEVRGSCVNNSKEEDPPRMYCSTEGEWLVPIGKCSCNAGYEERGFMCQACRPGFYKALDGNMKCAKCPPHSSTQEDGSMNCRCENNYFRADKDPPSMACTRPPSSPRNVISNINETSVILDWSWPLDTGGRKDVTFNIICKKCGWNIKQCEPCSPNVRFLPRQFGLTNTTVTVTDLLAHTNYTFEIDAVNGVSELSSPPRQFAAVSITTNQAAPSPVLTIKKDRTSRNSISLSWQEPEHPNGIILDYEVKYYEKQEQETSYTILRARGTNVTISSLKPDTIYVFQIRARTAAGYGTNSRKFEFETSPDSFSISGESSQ

B1: 153 (antibody, V domains shown)
VH: QVQLVQSGSELKKPGASVKVSCKASGYTFTDYSMHWVRQAPGQGLKWMGWINTETGEPTYAQGFTGRFVFSLDTSVSTAYLQISSLKAEDTAVYYCARIPLYYYGSRYWYFDVWGQGTTVTVSS
VL: DIQMTQSPSSLSASVGDRVTITCRASENIYRNLAWYQQKPGKAPKLLLYAATNLADGVPSRFSGSGSGTDYTLTISSLQSEDFATYYCQHFWGTPWTFGQGTKVEIK
modifications: synthetic humanized antibody heavy chain variable region sequence; synthetic humanized antibody light chain variable region sequence
B2: 158 (antibody, V domains shown)
VH: B1 VH
VL: B1 VL with K45Q, S80P
modifications: synthetic humanized antibody heavy chain variable region sequence; synthetic humanized antibody light chain variable region sequence
B3: 157 (antibody, V domains shown)
VH: B1 VH with K46E
VL: B1 VL with K45Q, S80P
modifications: synthetic humanized antibody heavy chain variable region sequence; synthetic humanized antibody light chain variable region sequence
B4: 151 (antibody, V domains shown)
VH: B1 VH with V2I
VL: B1 VL
modifications: synthetic humanized antibody heavy chain variable region sequence; synthetic humanized antibody light chain variable region sequence
B5: 134 (antibody, V domains shown)
VH: B1 VH
VL: EIVMTQSPATLSVSPGERATLSCRASENIYRNLAWYQQKPGQSPRLLIYAATNLADGIPARFSGSGSGTEYTLTISSLQSEDFAVYYCQHFWGTPWTFGQGTKVEIK
modifications: synthetic humanized antibody heavy chain variable region sequence; synthetic humanized antibody light chain variable region sequence
B6: 133 (antibody, V domains shown)
VH: B1 VH with K46E
VL: B5 VL
modifications: synthetic humanized antibody heavy chain variable region sequence; synthetic humanized antibody light chain variable region sequence
B7: 135 (antibody, V domains shown)
VH: B1 VH with K46E, Q62D, G63D, T65K
VL: B5 VL
modifications: synthetic humanized antibody heavy chain variable region sequence; synthetic humanized antibody light chain variable region sequence
B8: 154 (antibody, V domains shown)
VH: B1 VH with K46E, Q62D, G63D, T65K
VL: B1 VL
modifications: synthetic humanized antibody heavy chain variable region sequence; synthetic humanized antibody light chain variable region sequence
B9: 132 (antibody, V domains shown)
VH: B1 VH with V2I
VL: B5 VL
modifications: synthetic humanized antibody heavy chain variable region sequence; synthetic humanized antibody light chain variable region sequence
B10: 159 (antibody, V domains shown)
VH: B1 VH with Q62D, G63D, T65K
VL: B1 VL with K45Q, S80P
modifications: synthetic humanized antibody heavy chain variable region sequence; synthetic humanized antibody light chain variable region sequence
B11: 144 (antibody, V domains shown)
VH: B1 VH with K46E, Q62D, G63D, T65K
VL: B1 VL with K45Q, S80P
modifications: synthetic humanized antibody heavy chain variable region sequence; synthetic humanized antibody light chain variable region sequence
B12: 145 (antibody, V domains shown)
VH: B1 VH with Q62D, G63D, T65K
VL: B1 VL
modifications: synthetic humanized antibody heavy chain variable region sequence; synthetic humanized antibody light chain variable region sequence
B13: 160 (antibody, V domains shown)
VH: B1 VH with V2I, Q62D, G63D, T65K
VL: B1 VL with K45Q, S80P
modifications: synthetic humanized antibody heavy chain variable region sequence; synthetic humanized antibody light chain variable region sequence
B14: 155 (antibody, V domains shown)
VH: B1 VH with V2I, Q62D, G63D, T65K
VL: B1 VL
modifications: synthetic humanized antibody heavy chain variable region sequence; synthetic humanized antibody light chain variable region sequence

Positions count from the first letter of the chain named.

Broadly, the IC50 is the concentration needed to halve the response being measured. A low value points to greater potency.

One test deals with T2, human EphA4 (binding to human Ephrin A5) (Homo sapiens, UniProt P54764).
T2 construct: made in house; not restated for the human SEAP-His protein
T2 sequence (P54764 20-547): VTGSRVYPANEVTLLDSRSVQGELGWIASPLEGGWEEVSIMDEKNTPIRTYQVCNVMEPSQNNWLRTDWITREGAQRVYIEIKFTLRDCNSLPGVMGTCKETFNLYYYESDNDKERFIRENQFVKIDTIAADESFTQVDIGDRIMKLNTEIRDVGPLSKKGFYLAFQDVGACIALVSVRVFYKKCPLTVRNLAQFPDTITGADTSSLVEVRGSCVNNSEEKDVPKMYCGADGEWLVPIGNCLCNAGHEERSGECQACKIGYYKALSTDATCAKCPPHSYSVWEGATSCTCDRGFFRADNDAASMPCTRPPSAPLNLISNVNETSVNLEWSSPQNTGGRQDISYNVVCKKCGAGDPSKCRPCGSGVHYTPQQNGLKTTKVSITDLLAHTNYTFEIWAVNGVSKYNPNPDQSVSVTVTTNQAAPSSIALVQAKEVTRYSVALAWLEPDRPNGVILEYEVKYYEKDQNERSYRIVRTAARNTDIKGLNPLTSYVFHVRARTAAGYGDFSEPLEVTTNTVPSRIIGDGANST
Kind of test: Human EphA4-human ligand binding inhibition ELISA of humanized antibodies (biotinylated Ephrin A5-Fc). As to conditions: biotinylated human Ephrin A5-Fc 0.7 nM. How it is done: Each anti-EphA4 monoclonal humanized antibody obtained in Example 16 was evaluated for its inhibitory activity against the binding between human EphA4 and its human ligand according to the following steps. Each well of a 96-well plate (Nunc) was coated with an anti-alkaline phosphatase antibody (Thermo Fisher Scientific). After incubation overnight at 4° C., each well was blocked with 1% BlockAce (DS Pharma Biomedical) at room temperature for 1 hour. After washing with 0.05% Tween 20/PBS (Thermo Fisher Scientific) three times, the human EphA4 extracellular region-SEAP-His protein obtained by the method of Example 2 was added (final concentration: 10 nM) to each well and incubated at room temperature for 1 hour. After washing three times, a ligand and each serially diluted humanized antibody of antibody A (0, 0.003, 0.01, 0.03, 0.1, 0.3, 1, 3, 10, 30, 100, 300, 1000, and 3000 nM) were added to each well. The ligand used was biotinylated human Ephrin A5-Fc chimera (R&D Systems, final concentration: 0.7 nM). After incubation at room temperature for 1 hour and subsequent washing three times, horseradish peroxidase-labeled streptavidin (GE Healthcare) was added thereto and incubated at room temperature for 1 hour. After washing three times, a TMBZ (3,3′,5,5′-tetramethylbenzidine, Sigma-Aldrich) solution was added to each well and incubated at room temperature for 2 minutes. An equal amount of a reaction stopping solution (1N H2SO4, Wako Pure Chemical Industries) was added to each well. The absorbance at 450 nm was read using a microplate reader (PerkinElmer).
For B1, the IC50 worked out at 2.3 nM.

With B2, the half-maximal inhibitory concentration (IC50) was 2.8 nM.

As for B3, the IC50 worked out at 2.6 nM.

Molecule B4 gave a 50% inhibitory concentration (IC50) of 2 nM.

In turn, B5 yielded a half-inhibitory concentration (IC50) of 3 nM.

For the molecule B6, the IC50 is 3 nM. In other words, the single-digit nanomolar range.

With B7, the IC50 was 2.5 nM.

As to B8, the IC50 was 2.5 nM.

Turning to B9, the IC50 worked out at 3.1 nM.

Turning to B10, the IC50 worked out at 2.6 nM.

The molecule B11 returned an IC50 of 3.6 nM. The IC50 values of the last two molecules are within 1.5-fold of each other.

Regarding B12, the half-inhibitory concentration (IC50) worked out at 3.7 nM.

Regarding B13, the half-inhibitory concentration (IC50) stood at 2.2 nM. This IC50 is about 1.7-fold lower than that of the molecule before.

Regarding B14, the half-maximal inhibitory concentration (IC50) was 2.4 nM.

The target in the next test is T1, human EphA3. Kind of test: Selectivity ELISA of humanized antibodies for human Eph receptor. It counts as binding. As to conditions: coated protein 1 nM. The procedure, abridged:
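Read-out is A450 after TMB development stopped with 1N H2SO4. Plates bore anti-His-captured human Eph extracellular region-SEAP-His proteins at 1 nM final, made in Expi293F cells. Humanized antibody binding ran 1 h at room temperature before HRP-labeled anti-IgG detection.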
For orientation: ELISA stands for enzyme-linked immunosorbent assay.
B1: the “hEphA3-SEAP-: absorbance at 450 nm, percentage with respect to hEphA4-SEAP-His as 100%” value was 6.1%.

For B2, the “hEphA3-SEAP-: absorbance at 450 nm, percentage with respect to hEphA4-SEAP-His as 100%” value was 6.5%.

On to B3, for which the “hEphA3-SEAP-: absorbance at 450 nm, percentage with respect to hEphA4-SEAP-His as 100%” value stood at 6.4%.

Turning to B4, the “hEphA3-SEAP-: absorbance at 450 nm, percentage with respect to hEphA4-SEAP-His as 100%” value is given as 6.9%.

In the case of B5, the “hEphA3-SEAP-: absorbance at 450 nm, percentage with respect to hEphA4-SEAP-His as 100%” value is on record as 5.0%.

For B6, the “hEphA3-SEAP-: absorbance at 450 nm, percentage with respect to hEphA4-SEAP-His as 100%” value is 5.0%.

Regarding B7, the “hEphA3-SEAP-: absorbance at 450 nm, percentage with respect to hEphA4-SEAP-His as 100%” value was 5.0%.

For the molecule B8, the “hEphA3-SEAP-: absorbance at 450 nm, percentage with respect to hEphA4-SEAP-His as 100%” value worked out at 6.2%.

On to B9, for which the “hEphA3-SEAP-: absorbance at 450 nm, percentage with respect to hEphA4-SEAP-His as 100%” value was determined as 4.8%.

As to B10, the “hEphA3-SEAP-: absorbance at 450 nm, percentage with respect to hEphA4-SEAP-His as 100%” value stood at 5.4%.

For B11, the “hEphA3-SEAP-: absorbance at 450 nm, percentage with respect to hEphA4-SEAP-His as 100%” value was determined as 5.7%.

B12: the “hEphA3-SEAP-: absorbance at 450 nm, percentage with respect to hEphA4-SEAP-His as 100%” value came to 6.6%.

Take B13: the “hEphA3-SEAP-: absorbance at 450 nm, percentage with respect to hEphA4-SEAP-His as 100%” value was 6.2%.

With B14, the “hEphA3-SEAP-: absorbance at 450 nm, percentage with respect to hEphA4-SEAP-His as 100%” value is recorded as 5.6%.
